“And” between values parts separate entries of the source, which are not always exact repeats. Equal values may be shown once.

This data set concerns OC1OC[C@@H](O)[C@H](O)[C@H]1O. The data set can be described thus: cells, lysate or membranes named. To be noted: other: xylose 5 to 250 mM, pH 7.5, 30° C., 10 mM MgCl2, crude yeast extract, Hanes-Woolf plot.

As to “Piromyces sp. E2 xylose isomerase PiXI-O (PiXI; codon optimized gene PiXI-O, SEQ ID NO: 46), expressed in yeast (Piromyces sp. E2)”, the Michaelis-Menten constant (Km) is 40 mM and 39.87 ± 7.43 mM.

The values are drawn from patent publication US8772012B2, “Xylose isomerase and use thereof” (Kabushiki Kaisha Toyota Chuo Kenkyusho, priority 2009, dated 2014).
